Experimental data from article doi:10.1101/2020.08.17.254201.

Columns and labels:
[1] = target: SgEsaA_(332-725) (Streptococcus gallolyticus ATCC 43143); assay: SEC-MALS
[2] = target: SiEsaA_(328-685), fragment of Streptococcus intermedius B196 EsaA (Streptococcus intermedius B196); assay: SEC-MALS

Substance	stoichiometry N [1]	stoichiometry N [2]
SgEsaA_(332-725) (domain or fragment)	2	
SiEsaA_(328-685), fragment of Streptococcus intermedius B196 EsaA (domain or fragment)		2
